In patent US20140357851A1 (published 2014):

What was measured:
[1] = molecular target: T1, cynomolgus monkey PCSK9, V5- and 6xHis-tagged (cynomolgus monkey, UniProt A0A7N9D9N8 150-747); assay: BIAcore solution equilibrium assay, free PCSK9 read on immobilized 21B12
T1 construct: also called cPCSK9-V5-6xHIS; CynoPCSK9

[2] = molecular target: T1, cynomolgus monkey PCSK9, V5- and …; assay: BIAcore SPR, antibody amine-coupled to CM5 chip, PCSK9 as analyte, pH 7.4
Experimental: Briefly, the surface plasmon resonance experiments were performed using Biacore 2000 optical biosensors (Biacore, GE Healthcare, Piscataway, N.J.). […] The concentration of PCSK9 protein was varied at 2 fold intervals (the analyte) and was injected over the immobilized antibody surface (at a flow rate of 100 μl/min for 1.5 minutes).
Antibody binding kinetic parameters including kₐ (association rate constant), kd (dissociation rate constant), and KD (dissociation equilibrium constant) were determined using the BIA evaluation 3.1 computer program (BIAcore, Inc. Piscataway, N.J.).

[3] = molecular target: T2, mouse PCSK9, 8xHis-tagged (mouse, UniProt Q80W65 35-694, limits assumed); assay: KinExA solution equilibrium
T2 construct: also called mPCSK9-8xHIS; mPCSK9
Text: (§1) Briefly, Reacti-Gel™ (6×) (Pierce) was pre-coated with one of human, V5-tagged cyno or His-tagged mouse PCSK9 proteins and blocked with BSA. […] Equilibrium dissociation constant (KD) were obtained from nonlinear regression of the two sets of competition curves using a one-site homogeneous binding model. The KinExA® Pro software was employed in the analysis.

[4] = molecular target: T1, cynomolgus monkey PCSK9, V5- and …; assay: KinExA solution equilibrium
Text: as §1

B1: 21B12, anti-PCSK9 huIgG4 (antibody, V domains shown)
VH: QVQLVQSGAEVKKPGASVKVSCKASGYTLTSYGISWVRQAPGQGLEWMGWVSFYNGNTNYAQKLQGRGTMTTDPSTSTAYMELRSLRSDDTAVYYCARGYGMDVWGQGTTVTVSS
VL: QSALTQPASVSGSPGQSITISCTGTSSDVGGYNSVSWYQQHPGKAPKLMIYEVSNRPSGVSNRFSGSKSGNTASLTISGLQAEDEADYYCNSYTSTSMVFGGGTKLTVLQ
notes: also called 21B12 IgG4; 21B12.1
Which Kd [1] does the source give for B1 here?
The Kd was 0.011 nM.

And the Kd [2]?
The Kd was 0.36 nM.

B2: 16F12, anti-PCSK9 huIgG4 (antibody, V domains shown)
VH: QVHLVESGGGVVQPGRSLRLSCAASGFTFNSFGMHWVRQAPGKGLEWVALIWSDGSDEYYADSVKGRFTISRDNSKNTLYLQMNSLRAEDTAVYYCARAIAALYYYYGMDVWGQGTTVTVSS
VL: QSVLTQPPSVSAAPGQKVTISCSGSSSNIGNNFVSWYQQLPGTAPKLLIYDYNKRPSGIPDRFSGSKSGTSATLGITGLQTGDEADYYCGTWDSSLSAYVFGTGTRVTVLQ
notes: also called 16F12 IgG4; 16F12.1
How did the “fold lower affinity to mouse PCSK9 than to human and cyno PCSK9” value [3] turn out when B2 was run?
Its value is 10 to 250 fold.

And the Kd [4]?
The Kd was 0.016 nM.

What about the Kd [2] of the same binder?
The Kd was 0.87 nM.

B3: 31H4, anti-PCSK9 huIgG4 (antibody, V domains shown)
VH: EVQLVESGGGLVKPGGSLRLSCAASGFTFSSYSMNWVRQAPGKGLEWVSSISSSSSYISYADSVKGRFTISRDNAKNSLYLQMNSLRAEDTAVYFCARDYDFWSAYYDAFDVWGQGTMVTVSS
VL: QSVLTQPPSVSGAPGQRVTISCTGSSSNIGAGYDVHWYQQLPGTAPKLLISGNSNRPSGVPDRFSGSKSGTSASLAITGLQAEDEADYYCQSYDSSLSGSVFGGGTKLTVLQ
What does the source list for B3?
Kd [4]: 0.002 nM; Kd [2]: 0.19 nM
